Laboratory results published in patent publication US20180222961A1 (IMMATICS BIOTECHNOLOGIES, published 2018).

Target: T1, HLA-A*24:02 (human)
T1 construct: also called peptide-receptive MHC molecules
Assay: UV-exchange b2m ELISA; exchange-yield grade
Outline: (§1)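 UV-exchange products diluted 100-fold, captured on streptavidin-coated wells, 1 h 37 °C; HRP anti-β2m 2 ug/ml, 1 h 37 °C; TMB, A450. Standards: refolded HLA-A*02:01/MLA-001, 15-500 ng/ml. Yield = β2m signal of stabilised MHC.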

Binder	peptide exchange yield [%]
SYSDLHYGF	> 75
KYEKIFEML	> 75
VYTFLSSTL	> 75
FYFPTPTVL	> 75
VYHDDKQPTF	> 75
IYSPQFSRL	> 75
RFTTMLSTF	> 75
KYPVHIYRL	> 75
KYVKVFHQF	> 75
KYVAELSLL	> 75
RYGPVFTV	> 75
SFAPRSAVF	> 75
SYNEHWNYL	> 75
TAYMVSVAAF	50 to 75
VYNHTTRPL	> 75
SYFRGFTLI	> 75
RYLAVVHAVF	> 75
VYTPTLGTL	> 75
LYQPRASEM	50 to 75
VFVSFSSLF	50 to 75

Target: T2, HLA-A*01:01 (human)
T2 construct: also called peptide-receptive MHC molecules
Assay: UV-exchange b2m ELISA; exchange-yield grade
Outline: as §1

Binder	peptide exchange yield [%]
LLDEGAMLLY	> 75
TVTGAEQIQY	20 to 50
QLDSNRLTY	50 to 75
VMEQSAGIMY	20 to 50
FVDNQYWRY	50 to 75
VLLDEGAMLLY	20 to 50
SPVTSVHGGTY	20 to 50
RWEKTDLTY	20 to 50
DMDEEIEAEY	20 to 50
ETIRSVGYY	50 to 75
NVTMKVVSVLY	50 to 75
